B1: S. cerevisiae topoisomerase II 1-1177 cyslite-180C, Alexa555/Alexa647-labeled (enzyme, Saccharomyces cerevisiae, UniProt P06786 1-1177, looked up)
chain: MSTEPVSASDKYQKISQLEHILKRPDTYIGSVETQEQLQWIYDEETDAMIEKNVTIVPGLFKIFDEILVNAADNKVRDPSMKRIDVNIHAEEHTIEVKNDGKGIPIEIHNKENIYIPEMIFGHLLTSSNYDDDEKKVTGGRNGYGAKLCNIFSTEFILETADLNVGQKYVQKWENNMSICHPPKITSYKKGPSYTKVTFKPDLTRFGMKELDNDILGVMRRRVYDINGSVRDINVYLNGKSLKIRNFKNYVELYLKSLEKKRQLDNGEDGAAKSDIPTILYERINNRWEVAFAVSDISFQQISFVNSIATTMGGTHVNYITDQIVKKISEILKKKKKKSVKSFQIKNNMFIFINCLIENPAFTSQTKEQLTTRVKDFGSRAEIPLEYINKIMKTDLATRMFEIADANEENALKKSDGTRKSRITNYPKLEDANKAGTKEGYKCTLVLTEGDSALSLAVAGLAVVGRDYYGAYPLRGKMLNVREASADQILKNAEIQAIKKIMGLQHRKKYEDTKSLRYGHLMIMTDQDHDGSHIKGLIINFLESSFPGLLDIQGFLLEFITPIIKVSITKPTKNTIAFYNMPDYEKWREEESHKFTWKQKYYKGLGTSLAQEVREYFSNLDRHLKIFHSLQGNDKDYIDLAFSKKKADDRKEWLRQYEPGTVLDPTLKEIPISDFINKELILFSLADNIRSIPNVLDGFKPGQRKVLYGCFKKNLKSELKVAQLAPYVSEATAYHHGEQSLAQTIIGLAQNFVGSNNIYLLLPNGAFGTRATGGKDAAAARYIYTELNKLTRKIFHPADDPLYKYIQEDEKTVEPEWYLPILPMILVNGAEGIGTGWSTYIPPFNPLEIIKNIRHLMNDEELEQMHPWFRGWTGTIEEIEPLRYRMYGRIEQIGDNVLEITELPARTWTSTIKEYLLLGLSGNDKIKPWIKDMEEQHDDNIKFIITLSPEEMAKTRKIGFYERFKLISPISLMNMVAFDPHGKIKKYNSVNEILSEFYYVRLEYYQKRKDHMSERLQWEVEKYSFQVKFIKMIIEKELTVTNKPRNAIIQELENLGFPRFNKEGKPYYGSPNDEIAEQINDVKGATSDEEDEESSHEDTENVINGPEELYGTYEYLLGMRIWSLTKERYQKLLKQKQEKETELENLLKLSAKDIWNTDLKAFEVGYQEFLQRDAEAR
modifications: Alexa Fluor 555 C2 maleimide or Alexa Fluor 647 C2 maleimide on the native cysteine 180
notes: Saccharomyces cerevisiae topoisomerase II, C-terminal truncation coding for residues 1-1177 (Schmidt et al., 2012), with four cysteines changed to alanine; also called ScTop2^ΔCTR-cyslite-180C; topo II; not shown: His6, N-terminal, cleaved
B2: Methanosarcina mazei topoisomerase VI subunit A (Top6A) (enzyme)
chain: MEGEKGSKTRKGDALAREKLLEIAEKIYNQFEEEVVPSVSLPSRTKANLEYSDESDVWVYGDRESERSAKTVKGAFQLLKTTYATDFLINEHLARNRGSTLRELYYISEGWDYAKFKEQGESDRLIEDLEILTSLQREYFHMRPEEDGATMFGPIEITEQTKRGERNIHCQKDVGEGGYQIPFNVENIEFQKHDASMIIAIETGGMYARLMENGFDEAYNAILVHLKGQPARSTRRIIKRMNEELGIPVAVFTDGDPWSYRIYASVAYGAIKSAHLSEFMATPAAKFLGLQPSDIVEYELSTDKLTEQDVSALRSELSDPRFESDYWKEQIQLQLDIGKKAEQQAFAGKGLDFVTEVYLPNRLKEMGMI
notes: Top6A of Methanosarcina mazei topo VI; the Top6A gene cloned into a polycistronic expression vector (Corbett et al., 2007); Two Top6A and two Top6B form the A2B2 heterotetramer; also called MmTop6A; A subunit of topo VI

How the values were obtained:
[1] = target: the molecule itself; experiment: FRET or BRET; bulk FRET between Alexa555 and Alexa647 on Cys180 of the ATP gate; 200 nM topo II, 0 or 100 uM bp supercoiled DNA, 100 mM KCl, 10 mM Tris-HCl pH 7.9, 5 mM MgCl2, 0 or 1 mM AMPPNP
[2] = target: the molecule itself; experiment: SEC; topo VI co-expressed in E. coli and co-purified through His6-Top6B (Ni2+, SP/Q, TEV, Ni2+), then Sephacryl-300 HR gel filtration in 20 mM HEPES-KOH pH 7.5, 300 mM KCl, 10% glycerol; heterotetramer peak

Protein | binding result [1] | binding result [2]
B1 | binds | 
B2 |  | binds

— publication PMC5922973, “Topoisomerase VI senses and exploits both DNA crossings and bends to facilitate strand passage” (eLife, 2018)
